Experimental data as given in US20110263454A1, “Methods of Identifying Functional Characteristics of Promoters, Transcription Modifying Proteins and Transcription Modulating Agents” (Salk Institute for Biological Studies, priority 2008, published 2011).

B1: LXRb: Liver X Receptor β (NR1H2), cDNA driver (protein, UniProt P55055 1-460, looked up)
Oxysterols receptor LXR-beta: MSSPTTSSLDTPLPGNGPPQPGAPSSSPTVKEEGPEPWPGGPDPDVPGTDEASSACSTDWVIPDPEEEPERKRKKGPAPKMLGHELCRVCGDKASGFHYNVLSCEGCKGFFRRSVVRGGARRYACRGGGTCQMDAFMRRKCQQCRLRKCKEAGMREQCVLSEEQIRKKKIRKQQQESQSQSQSPVGPQGSSSSASGPGASPGGSEAGSQGSGEGEGVQLTAAQELMIQQLVAAQLQCNKRSFSDQPKVTPWPLGADPQSRDARQQRFAHFTELAIISVQEIVDFAKQVPGFLQLGREDQIALLKASTIEIMLLETARRYNHETECITFLKDFTYSKDDFHRAGLQVEFINPIFEFSRAMRRLGLDDAEYALLIAINIFSADRPNVQEPGRVEALQQPYVEALLSYTRIKRPQDQLRFPRMLMKLVSLRTLSSVHSEQVFALRLQDKKLPPLLSEIWDVHE
B2: RVRa: Rev-Erb α (NR1D1), cDNA driver (protein, UniProt P20393 1-614, looked up)
Nuclear receptor subfamily 1 …: MTTLDSNNNTGGVITYIGSSGSSPSRTSPESLYSDNSNGSFQSLTQGCPTYFPPSPTGSLTQDPARSFGSIPPSLSDDGSPSSSSSSSSSSSSFYNGSPPGSLQVAMEDSSRVSPSKSTSNITKLNGMVLLCKVCGDVASGFHYGVHACEGCKGFFRRSIQQNIQYKRCLKNENCSIVRINRNRCQQCRFKKCLSVGMSRDAVRFGRIPKREKQRMLAEMQSAMNLANNQLSSQCPLETSPTQHPTPGPMGPSPPPAPVPSPLVGFSQFPQQLTPPRSPSPEPTVEDVISQVARAHREIFTYAHDKLGSSPGNFNANHASGSPPATTPHRWENQGCPPAPNDNNTLAAQRHNEALNGLRQAPSSYPPTWPPGPAHHSCHQSNSNGHRLCPTHVYAAPEGKAPANSPRQGNSKNVLLACPMNMYPHGRSGRTVQEIWEDFSMSFTPAVREVVEFAKHIPGFRDLSQHDQVTLLKAGTFEVLMVRFASLFNVKDQTVMFLSRTTYSLQELGAMGMGDLLSAMFDFSEKLNSLALTEEELGLFTAVVLVSADRSGMENSASVEQLQETLLRALRALVLKNRPLETSRFTKLLLKLPDLRTLNNMHSEKLLSFRVDAQ
B3: HNF4a: Hepatocyte Nuclear Factor α (NR2A1), cDNA driver (protein, UniProt P41235 1-474, looked up)
Hepatocyte nuclear factor …: MRLSKTLVDMDMADYSAALDPAYTTLEFENVQVLTMGNDTSPSEGTNLNAPNSLGVSALCAICGDRATGKHYGASSCDGCKGFFRRSVRKNHMYSCRFSRQCVVDKDKRNQCRYCRLKKCFRAGMKKEAVQNERDRISTRRSSYEDSSLPSINALLQAEVLSRQITSPVSGINGDIRAKKIASIADVCESMKEQLLVLVEWAKYIPAFCELPLDDQVALLRAHAGEHLLLGATKRSMVFKDVLLLGNDYIVPRHCPELAEMSRVSIRILDELVLPFQELQIDDNEYAYLKAIIFFDPDAKGLSDPGKIKRLRSQVQVSLEDYINDRQYDSRGRFGELLLLLPTLQSITWQMIEQIQFIKLFGMAKIDNLLQEMLLGGSPSDAPHAHHPLHPHLMQEHMGTNVIVANTMPTHLSNGQMCEWPRPRGQAATPETPQPSPPGGSGSEPYKLLPGAVATIVKPLSAIPQPTITKQEVI
B4: RORa: RAR-related Orphan Receptor α (NR1F1), cDNA driver (protein, UniProt P35398 1-523, looked up)
Nuclear receptor ROR-alpha: MESAPAAPDPAASEPGSSGADAAAGSRETPLNQESARKSEPPAPVRRQSYSSTSRGISVTKKTHTSQIEIIPCKICGDKSSGIHYGVITCEGCKGFFRRSQQSNATYSCPRQKNCLIDRTSRNRCQHCRLQKCLAVGMSRDAVKFGRMSKKQRDSLYAEVQKHRMQQQQRDHQQQPGEAEPLTPTYNISANGLTELHDDLSNYIDGHTPEGSKADSAVSSFYLDIQPSPDQSGLDINGIKPEPICDYTPASGFFPYCSFTNGETSPTVSMAELEHLAQNISKSHLETCQYLREELQQITWQTFLQEEIENYQNKQREVMWQLCAIKITEAIQYVVEFAKRIDGFMELCQNDQIVLLKAGSLEVVFIRMCRAFDSQNNTVYFDGKYASPDVFKSLGCEDFISFVFEFGKSLCSMHLTEDEIALFSAFVLMSADRSWLQEKVKIEKLQQKIQLALQHVLQKNHREDGILTKLICKVSTLRALCGRHTEKLMAFKAIYPDIVRLHFPPLYKELFTSEFEPAMQIDG
B5: RORg: RAR-related Orphan Receptor γ (NR1F3), cDNA driver (protein, UniProt P51449 1-518, looked up)
Nuclear receptor ROR-gamma: MDRAPQRQHRASRELLAAKKTHTSQIEVIPCKICGDKSSGIHYGVITCEGCKGFFRRSQRCNAAYSCTRQQNCPIDRTSRNRCQHCRLQKCLALGMSRDAVKFGRMSKKQRDSLHAEVQKQLQQRQQQQQEPVVKTPPAGAQGADTLTYTLGLPDGQLPLGSSPDLPEASACPPGLLKASGSGPSYSNNLAKAGLNGASCHLEYSPERGKAEGRESFYSTGSQLTPDRCGLRFEEHRHPGLGELGQGPDSYGSPSFRSTPEAPYASLTEIEHLVQSVCKSYRETCQLRLEDLLRQRSNIFSREEVTGYQRKSMWEMWERCAHHLTEAIQYVVEFAKRLSGFMELCQNDQIVLLKAGAMEVVLVRMCRAYNADNRTVFFEGKYGGMELFRALGCSELISSIFDFSHSLSALHFSEDEIALYTALVLINAHRPGLQEKRKVEQLQYNLELAFHHHLCKTHRQSILAKLPPKGKLRSLCSQHVERLQIFQHLHPIVVQAAFPPLYKELFSTETESPVGLSK

tested on: Bmal1 promoter; assay: NHR-promoter luciferase screen, Bmal1 promoter; type: cell-based, mouse; conditions: Bmal1 promoter; HR component without or with ligand
Procedure: (§1) The use, feasibility, and reproducibility of the functional NHR-promoter screen in a 48-well format have been tested validated. Briefly, there were co-expressed 50 ng of each NHR/NHR homodimer or NHR/RXR heterodimer with 100 ng promoter/luciferase construct and 50 ng of LacZ (as a control for transfection efficiency) in CV-1 cells using Fugene HD (Roche) as a transfection reagent (alternatively or additionally, a CMV-YFP construct can be used as a transfection control). Each of the nuclear hormone receptors that were used in these experiments was cloned into a pcDNA3.1 vector and comprised a C-terminally linked V5H6 tag. Twenty-four hours after transfection, appropriate ligands were added, where applicable, (see Table 5 for various ligands and concentrations and after 48 hrs, samples were assayed for luciferase and LacZ activity. To measure for luciferase activity 15 ul of sample was added to 30 ul of luciferase buffer (20 mM tricine, 1.07 mM MgCarbonate, 2.67 mM MgSulfate, 0.1 mM Naz-EDTA, 5 mM DTT, 5 mM ATP, 0.15 mg/ml CoA, 0.5 mM Luciferin), mixed briefly, and run in a Perkin Elmer Victor 5 luminometer. Thus, the functional NHR-promoter screen was used to observe the transcriptional activity of 29 promoters from various physiological pathways including inflammation, lipid and sugar metabolism, cholesterol transport, xenobiotic metabolism, and circadian rhythm.
(§2) The promoters that facilitate transcription of the indicated gene products that were tested using the protocols described herein are listed in the first row of the table. The nuclear hormone receptors and, where applicable, ligands that were assayed for their transcriptional effects on the promoters are listed in the first column of the table. The data represent the luciferase activity of each sample normalized to both the lacZ activity of that sample and to a control, e.g., no NHR or ligand, as customary in the art. As described previously, these normalizations allow the transcriptional activity of each reporter cell to be compared to other samples.
(§3) Tables 7-40 show the transcriptional effects of the hormone receptors, and, where applicable, ligands (orphan receptors are screened without ligand), on each individual promoter. […] The control data of each table are shown in their last rows.

Row | Molecule | Luc. act., normalized to lacZ | Normalized Luc. act., normalized to control
1 | B1 | 17.4 | 1.1
2 | B2 | 2.5 | 0.2
3 | B3 | 10.1 | 0.6
4 | B4 | 115.6 | 7.4
5 | B5 | 58.9 | 3.8

same assay, conditions: FIG. 2c, in words

Row | Molecule | regulation of the Bmal1 promoter
6 | B2 | specific repression
7 | B4 | specific activation
8 | B5 | specific activation

same assay, conditions: transcription factor +/- ligand; control = 1.00

Row | Molecule | mBmal1 promoter reporter activity
9 | B1 | 1.11
10 | B2 | 0.16
11 | B3 | 0.65
12 | B4 | 7.40
13 | B5 | 3.77

tested on: hPPARg1 promoter; assay: NHR-promoter luciferase screen, hPPARg1 promoter; type: cell-based, human; conditions: PPARG1 promoter; hormone receptor with or without its ligand
Procedure: as §1, §2, §3

Row | Molecule | Luc. act., normalized to lacZ
14 | B1 | 37.9
15 | B2 | 45.9
16 | B3 | 34.8
17 | B4 | 74.0
18 | B5 | 81.5

same assay, conditions: PPARG1 promoter; hormone receptor with or without its ligand; relative to control

Row | Molecule | Normalized Luc. act., normalized to control
19 | B1 | 0.5
20 | B2 | 0.7
21 | B3 | 0.5
22 | B4 | 1.1
23 | B5 | 1.2

same assay, conditions: Table 6d; luciferase activity relative to control (control = 1.00)

Row | Molecule | Results of assays of transcription factor (+/- ligand) with hPPARg1
24 | B1 | 0.55
25 | B2 | 0.67
26 | B3 | 0.51
27 | B4 | 1.07
28 | B5 | 1.18

tested on: mUCP3 promoter; assay: NHR-promoter luciferase screen, mUCP3 promoter; type: cell-based, mouse; conditions: mUCP3 promoter reporter; HR without or with its ligand; relative to control
Procedure: as §1, §2, §3

Row | Molecule | Normalized Luc. act., normalized to control
29 | B1 | 1.7
30 | B2 | 1.2
31 | B3 | 1.1
32 | B4 | 2.6
33 | B5 | 2.4

same assay, conditions: mUCP3 promoter reporter; hormone receptor (HR) without or with its ligand

Row | Molecule | Luc. act., normalized to lacZ
34 | B1 | 1.2
35 | B2 | 0.8
36 | B3 | 0.7
37 | B4 | 1.7
38 | B5 | 1.6

same assay, conditions: transcription factor +/- ligand; control = 1.00

Row | Molecule | mUCP3 promoter reporter activity
39 | B1 | 1.73
40 | B2 | 1.24
41 | B3 | 1.06
42 | B4 | 2.56
43 | B5 | 2.38

tested on: mCAR promoter; assay: NHR-promoter luciferase screen, mCAR promoter; type: cell-based, mouse; conditions: FIG. 2a, in words
Procedure: as §1, §2, §3

Row | Molecule | regulation of the Constitutive Androstane Receptor (CAR) promoter
44 | B3 | Specific and strong activation

same assay, conditions: mCAR promoter-luciferase, CV-1 cells, NHR +/- ligand, control = 1.00

Row | Molecule | luciferase activity normalized to lacZ activity and to a control, mCAR
45 | B1 | 0.92
46 | B2 | 0.89
47 | B3 | 16.83
48 | B4 | 0.55
49 | B5 | 1.13

same assay, conditions: mCAR promoter; HR/ligand component

Row | Molecule | Luc. act., normalized to lacZ | Normalized Luc. act., normalized to control
50 | B1 | 34.9 | 0.9
51 | B2 | 34.0 | 0.9
52 | B3 | 641.2 | 16.8
53 | B4 | 20.9 | 0.5
54 | B5 | 43.1 | 1.1

tested on: mPer1 promoter; assay: NHR-promoter luciferase screen, mPer1 promoter; type: cell-based, mouse; conditions: Per1 promoter reporter; co-transfected HR, with or without its ligand
Procedure: as §1, §2, §3

Row | Molecule | Luc. act., normalized to lacZ
55 | B1 | 117.6
56 | B2 | 98.6
57 | B3 | 93.1
58 | B4 | 107.9
59 | B5 | 176.3

same assay, conditions: Per1 promoter reporter; co-transfected HR, with or without its ligand; relative to control

Row | Molecule | Normalized Luc. act., normalized to control
60 | B1 | 0.8
61 | B2 | 0.7
62 | B3 | 0.6
63 | B4 | 0.7
64 | B5 | 1.2

same assay, conditions: mPer1 promoter-luciferase, CV-1 cells, NHR +/- ligand, control = 1.00

Row | Molecule | luciferase activity normalized to lacZ activity and to a control, mPer1
65 | B1 | 0.82
66 | B2 | 0.68
67 | B3 | 0.65
68 | B4 | 0.75
69 | B5 | 1.22
